Data: patent US20260117212, “OPTIMIZED ENGINEERED MEGANUCLEASES HAVING SPECIFICITY FOR THE HUMAN T CELL RECEPTOR ALPHA CONSTANT REGION GENE” (Precision BioSciences, Inc., published 2026)
Positions count from the first letter of the chain named.

Assays:
[1] = molecular target: T1, TRC 1-2L.2307 meganuclease (synthetic construct); assay: cell_activity; CD3 knockout in primary human T cells; EC90 0.354 ug; settings: tags: N-terminal SV40 NLS (mRNA delivered)
T1 chain: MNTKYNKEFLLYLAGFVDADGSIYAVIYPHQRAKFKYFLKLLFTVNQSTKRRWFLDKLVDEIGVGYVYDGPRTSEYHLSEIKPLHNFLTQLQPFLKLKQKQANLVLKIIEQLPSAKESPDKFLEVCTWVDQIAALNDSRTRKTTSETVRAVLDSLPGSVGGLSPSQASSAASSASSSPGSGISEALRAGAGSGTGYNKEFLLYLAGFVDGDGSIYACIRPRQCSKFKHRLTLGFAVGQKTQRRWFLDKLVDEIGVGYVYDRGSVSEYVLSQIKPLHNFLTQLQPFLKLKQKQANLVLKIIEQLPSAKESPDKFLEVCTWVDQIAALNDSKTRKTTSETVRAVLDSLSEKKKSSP
Procedure: (§1) In this study, an apheresis sample was drawn from a healthy, informed, and compensated donor, and the T cells were enriched using the CD3 positive selection kit II in accord with the manufacturer's instructions (Stem Cell Technologies). T cells were prepared for editing by stimulating with ImmunoCult anti-CD3/CD28/CD2 (Stem Cell Technologies) for three days in Xuri medium (GE Healthcare) supplemented with fetal bovine serum to 5% (Gemini Bio) and recombinant human IL-2 to 10 ng/ml (Gibco). Stimulated T cells were harvested and counted (Countess II, ThermoFisher) before electroporation was carried out on the Lonza 4-D NucleoFector using a titrated range of mRNA encoding TRC 1-2L.1592 or TRC 1-2L.2307. The concentrations used for this study were 2, 1, 0.5, 0.25, 0.125, and 0.0625 μg of RNA per 1×10⁶ stimulated T cells. Cells were subsequently cultured as above with IL-2 supplemented to 30 ng/ml.
(§2) Using cell counts and frequency of TRAC-edited CAR+ events, the number of CAR T cells produced using each TRC1-2 variant were calculated and plotted in FIG. 7. GraphPad Prism was used to calculate EC50 and EC90 values for TRC 1-2L.1592 (FIG. 7A), and TRC 1-2L.2307 (FIG. 7B).

[2] = molecular target: T2, TRC 1-2L.1592 meganuclease (synthetic construct); assay: cell_activity; CD3 knockout in primary human T cells; EC90 0.545 ug
T2 chain: T1 chain with A19G, Y37H, N46S, G70L, H77R, C223G, Q271E
Procedure: as §1, §2

B1: TRC 1-2 recognition sequence (dsDNA)
DNA 1: TGGCCTGGAGCAACAAATCTGA
DNA 2: TCAGATTTGTTGCTCCAGGCCA
In the case of B1, the EC50 [1] is reported as 0.179 ug mRNA per 1e6 cells and the EC50 [2] is reported as 0.372 ug mRNA per 1e6 cells.
